Results as given in the supplement of paper PMC10567573.

B1: TRAF3IP2 (parent)
chain: KEHVPTWLQNTHVYSWPKNKKNIL

Variants of: B1
Experiment: protein stability index of a GFP-peptide fusion (GPS, HEK-293T) (PSI 1-6); higher = more stable
Details: c terminus: a fixed tail appended
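Note: lentivirally expressed fusions sorted by FACS into six bins by GFP to DsRed ratio, PSI derived from sequencing read proportions per bin multiplied by bin number.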

Variant	protein stability index
KEHVPTWLQNTHVYQWPKNKKNIL [S15Q]	2.49
KEHVPTWLQNTHVYIWPKNKKNIL [S15I]	1.7
KEHVPTWLQNTHVYPWPKNKKNIL [S15P]	2.7
KEHVPTWLQNTHVYEWPKNKKNIL [S15E]	2.6
KEHVPTWLQNTHVYMWPKNKKNIL [S15M]	2.23
KEHVPTWLQNTHVYFWPKNKKNIL [S15F]	1.97
KEHVPTWLQNTHVYRWPKNKKNIL [S15R]	3.12
KEHVPTWLQNTHVYKWPKNKKNIL [S15K]	2.77
KEHVPTWLQNTHVYCWPKNKKNIL [S15C]	2.15
KEHVPTWLQNTHVYLWPKNKKNIL [S15L]	2.22
KEHVPTWLQNTHVYNWPKNKKNIL [S15N]	2.21
KEHVPTWLQNTHVYGWPKNKKNIL [S15G]	2.99
KEHVPTWLQNTHVYAWPKNKKNIL [S15A]	3.19
KEHVPTWLQNTHVYHWPKNKKNIL [S15H]	2.27
KEHVPTWLQNTHVYDWPKNKKNIL [S15D]	2.89
KEHVPTWLSNTHVYSWPKNKKNIL [Q9S]	2.62
KEHVPTWLRNTHVYSWPKNKKNIL [Q9R]	1.97
KEHVPTWLMNTHVYSWPKNKKNIL [Q9M]	2.53
KEHVPTWLANTHVYSWPKNKKNIL [Q9A]	2.18
KEHVPTWLVNTHVYSWPKNKKNIL [Q9V]	2.65
KEHVPTWLDNTHVYSWPKNKKNIL [Q9D]	2.53
KEHVPTWLGNTHVYSWPKNKKNIL [Q9G]	2.66
KEHVPTWLENTHVYSWPKNKKNIL [Q9E]	2.68
KEHVPTWLKNTHVYSWPKNKKNIL [Q9K]	1.87

Variant	protein stability index
KEHVPTWLINTHVYSWPKNKKNIL [Q9I]	2.55
KEHVPTWLLNTHVYSWPKNKKNIL [Q9L]	2.29
KEHVPTWLFNTHVYSWPKNKKNIL [Q9F]	2.38
KEHVPTWLHNTHVYSWPKNKKNIL [Q9H]	2.54
KEHVPTWLTNTHVYSWPKNKKNIL [Q9T]	2.8
KEHVPTWLYNTHVYSWPKNKKNIL [Q9Y]	2.39
KEHVPTWLNNTHVYSWPKNKKNIL [Q9N]	3.18
KEHVPTWLPNTHVYSWPKNKKNIL [Q9P]	2.81
KEHVPTWLCNTHVYSWPKNKKNIL [Q9C]	2.25
KEHVPTWLQNTHVMSWPKNKKNIL [Y14M]	2.76
KEHVPTWLQNTHVQSWPKNKKNIL [Y14Q]	3.06
KEHVPTWLQNTHVPSWPKNKKNIL [Y14P]	2.98
KEHVPTWLQNTHVISWPKNKKNIL [Y14I]	3.71
KEHVPTWLQNTHVASWPKNKKNIL [Y14A]	3.14
KEHVPTWLQNTHVVSWPKNKKNIL [Y14V]	2.69
KEHVPTWLQNTHVFSWPKNKKNIL [Y14F]	2.05
KEHVPTWLQNTHVESWPKNKKNIL [Y14E]	3.14
KEHVPTWLQNTHVWSWPKNKKNIL [Y14W]	1.98
KEHVPTWLQNTHVKSWPKNKKNIL [Y14K]	2.49
KEHVPTWLQNTHVHSWPKNKKNIL [Y14H]	3.46
KEHVPTWLQNTHVLSWPKNKKNIL [Y14L]	2.29
KEHVPTWLQNTHVCSWPKNKKNIL [Y14C]	2.63
KEHVPTWLQNTHVDSWPKNKKNIL [Y14D]	3
KEHVPTWLQNTHVTSWPKNKKNIL [Y14T]	3

Variant	protein stability index
KEHVPTWLQNTHVNSWPKNKKNIL [Y14N]	3.24
KEHVPTWLQNTHVGSWPKNKKNIL [Y14G]	3.05
KEHVPTWLQNTHVSSWPKNKKNIL [Y14S]	3.4
KEHVPTWLQNTHVRSWPKNKKNIL [Y14R]	2.73
KEHVPPWLQNTHVYSWPKNKKNIL [T6P]	3.07
KEHVPEWLQNTHVYSWPKNKKNIL [T6E]	2.59
KEHVPGWLQNTHVYSWPKNKKNIL [T6G]	2.81
KEHVPWWLQNTHVYSWPKNKKNIL [T6W]	1.53
KEHVPYWLQNTHVYSWPKNKKNIL [T6Y]	2.32
KEHVPCWLQNTHVYSWPKNKKNIL [T6C]	1.81
KEHVPIWLQNTHVYSWPKNKKNIL [T6I]	2.21
KEHVPSWLQNTHVYSWPKNKKNIL [T6S]	2.88
KEHVPKWLQNTHVYSWPKNKKNIL [T6K]	2.73
KEHVPDWLQNTHVYSWPKNKKNIL [T6D]	2.71
KEHVPLWLQNTHVYSWPKNKKNIL [T6L]	2.58
KEHVPRWLQNTHVYSWPKNKKNIL [T6R]	2.23
KEHVPFWLQNTHVYSWPKNKKNIL [T6F]	1.93
KEHVPVWLQNTHVYSWPKNKKNIL [T6V]	2.17
KEHVPMWLQNTHVYSWPKNKKNIL [T6M]	2.22
KEHVPAWLQNTHVYSWPKNKKNIL [T6A]	2.49
KEHVPQWLQNTHVYSWPKNKKNIL [T6Q]	2.51
KEHVPNWLQNTHVYSWPKNKKNIL [T6N]	3.38
KEHVPHWLQNTHVYSWPKNKKNIL [T6H]	2.29
KEHVPTWLQNTHHYSWPKNKKNIL [V13H]	3.78

Variant	protein stability index
KEHVPTWLQNTHCYSWPKNKKNIL [V13C]	2.49
KEHVPTWLQNTHYYSWPKNKKNIL [V13Y]	2.62
KEHVPTWLQNTHWYSWPKNKKNIL [V13W]	2.46
KEHVPTWLQNTHDYSWPKNKKNIL [V13D]	3.88
KEHVPTWLQNTHNYSWPKNKKNIL [V13N]	2.11
KEHVPTWLQNTHQYSWPKNKKNIL [V13Q]	2.31
KEHVPTWLQNTHSYSWPKNKKNIL [V13S]	2.75
KEHVPTWLQNTHIYSWPKNKKNIL [V13I]	2.51
KEHVPTWLQNTHMYSWPKNKKNIL [V13M]	2.88
KEHVPTWLQNTHTYSWPKNKKNIL [V13T]	2.66
KEHVPTWLQNTHFYSWPKNKKNIL [V13F]	2.65
KEHVPTWLQNTHKYSWPKNKKNIL [V13K]	3.2
KEHVPTWLQNTHEYSWPKNKKNIL [V13E]	2.52
KEHVPTWLQNTHLYSWPKNKKNIL [V13L]	2.44
KEHVPTWLQNTHPYSWPKNKKNIL [V13P]	3.07
KEHVPTWLQNTHRYSWPKNKKNIL [V13R]	3
KEHVPTWLQNTHAYSWPKNKKNIL [V13A]	2.5
KEHVPTWLQNTPVYSWPKNKKNIL [H12P]	2.94
KEHVPTWLQNTRVYSWPKNKKNIL [H12R]	3.02
KEHVPTWLQNTVVYSWPKNKKNIL [H12V]	2.05
KEHVPTWLQNTQVYSWPKNKKNIL [H12Q]	2.55
KEHVPTWLQNTGVYSWPKNKKNIL [H12G]	2.8
KEHVPTWLQNTNVYSWPKNKKNIL [H12N]	2.62
KEHVPTWLQNTLVYSWPKNKKNIL [H12L]	1.79

Variant	protein stability index
KEHVPTWLQNTMVYSWPKNKKNIL [H12M]	2.42
KEHVPTWLQNTKVYSWPKNKKNIL [H12K]	2.51
KEHVPTWLQNTDVYSWPKNKKNIL [H12D]	2.75
KEHVPTWLQNTTVYSWPKNKKNIL [H12T]	2.82
KEHVPTWLQNTCVYSWPKNKKNIL [H12C]	2.46
KEHVPTWLQNTAVYSWPKNKKNIL [H12A]	2.86
KEHVPTWLQNTSVYSWPKNKKNIL [H12S]	3.17
KEHVPTWLQNTWVYSWPKNKKNIL [H12W]	1.82
KEHVPTWLQNTIVYSWPKNKKNIL [H12I]	2.17
KEHVPTWLQNTEVYSWPKNKKNIL [H12E]	3.38
KEHVPTWLQNTYVYSWPKNKKNIL [H12Y]	2.6
KEHVPTWLQNTFVYSWPKNKKNIL [H12F]	2.13
KEHVPTCLQNTHVYSWPKNKKNIL [W7C]	3.75
KEHVPTTLQNTHVYSWPKNKKNIL [W7T]	3.84
KEHVPTSLQNTHVYSWPKNKKNIL [W7S]	3.31
KEHVPTKLQNTHVYSWPKNKKNIL [W7K]	3.34
KEHVPTFLQNTHVYSWPKNKKNIL [W7F]	2.82
KEHVPTILQNTHVYSWPKNKKNIL [W7I]	2.61
KEHVPTLLQNTHVYSWPKNKKNIL [W7L]	3.2
KEHVPTGLQNTHVYSWPKNKKNIL [W7G]	3.99
KEHVPTDLQNTHVYSWPKNKKNIL [W7D]	3.07
KEHVPTQLQNTHVYSWPKNKKNIL [W7Q]	3.74
KEHVPTPLQNTHVYSWPKNKKNIL [W7P]	3.21
KEHVPTELQNTHVYSWPKNKKNIL [W7E]	3.97

Variant	protein stability index
KEHVPTHLQNTHVYSWPKNKKNIL [W7H]	3.21
KEHVPTYLQNTHVYSWPKNKKNIL [W7Y]	2.88
KEHVPTMLQNTHVYSWPKNKKNIL [W7M]	3.61
KEHVPTVLQNTHVYSWPKNKKNIL [W7V]	3.82
KEHVPTRLQNTHVYSWPKNKKNIL [W7R]	2.85
KEHVPTALQNTHVYSWPKNKKNIL [W7A]	3.39
KEHVPTNLQNTHVYSWPKNKKNIL [W7N]	3.63
KEHVPTWLQQTHVYSWPKNKKNIL [N10Q]	2.32
KEHVPTWLQCTHVYSWPKNKKNIL [N10C]	2.07
KEHVPTWLQVTHVYSWPKNKKNIL [N10V]	2.85
KEHVPTWLQPTHVYSWPKNKKNIL [N10P]	2.64
KEHVPTWLQSTHVYSWPKNKKNIL [N10S]	2.66
KEHVPTWLQHTHVYSWPKNKKNIL [N10H]	2.48
KEHVPTWLQITHVYSWPKNKKNIL [N10I]	1.79
KEHVPTWLQKTHVYSWPKNKKNIL [N10K]	2.04
KEHVPTWLQDTHVYSWPKNKKNIL [N10D]	3.02
KEHVPTWLQMTHVYSWPKNKKNIL [N10M]	2.25
KEHVPTWLQYTHVYSWPKNKKNIL [N10Y]	2.6
KEHVPTWLQLTHVYSWPKNKKNIL [N10L]	2.03
KEHVPTWLQTTHVYSWPKNKKNIL [N10T]	2.85
KEHVPTWLQFTHVYSWPKNKKNIL [N10F]	2.09
KEHVPTWLQGTHVYSWPKNKKNIL [N10G]	2.07
KEHVPTWLQATHVYSWPKNKKNIL [N10A]	2.34
KEHVPTWLQRTHVYSWPKNKKNIL [N10R]	2.09

Variant	protein stability index
KEHVPTWLQETHVYSWPKNKKNIL [N10E]	2.66
KEHVPTWLQWTHVYSWPKNKKNIL [N10W]	1.64
KEHVPTWGQNTHVYSWPKNKKNIL [L8G]	3.21
KEHVPTWNQNTHVYSWPKNKKNIL [L8N]	3.2
KEHVPTWAQNTHVYSWPKNKKNIL [L8A]	3.33
KEHVPTWVQNTHVYSWPKNKKNIL [L8V]	2.04
KEHVPTWCQNTHVYSWPKNKKNIL [L8C]	3.02
KEHVPTWDQNTHVYSWPKNKKNIL [L8D]	3.17
KEHVPTWHQNTHVYSWPKNKKNIL [L8H]	2.76
KEHVPTWPQNTHVYSWPKNKKNIL [L8P]	3.18
KEHVPTWRQNTHVYSWPKNKKNIL [L8R]	2.98
KEHVPTWSQNTHVYSWPKNKKNIL [L8S]	3.01
KEHVPTWWQNTHVYSWPKNKKNIL [L8W]	2.63
KEHVPTWMQNTHVYSWPKNKKNIL [L8M]	3.34
KEHVPTWTQNTHVYSWPKNKKNIL [L8T]	3.45
KEHVPTWYQNTHVYSWPKNKKNIL [L8Y]	2.73
KEHVPTWKQNTHVYSWPKNKKNIL [L8K]	2.98
KEHVPTWEQNTHVYSWPKNKKNIL [L8E]	3.88
KEHVPTWFQNTHVYSWPKNKKNIL [L8F]	2.2
KEHVPTWIQNTHVYSWPKNKKNIL [L8I]	2.54
KEHVPTWQQNTHVYSWPKNKKNIL [L8Q]	3.08
KEHVVTWLQNTHVYSWPKNKKNIL [P5V]	2.24
KEHVWTWLQNTHVYSWPKNKKNIL [P5W]	2.76
KEHVTTWLQNTHVYSWPKNKKNIL [P5T]	2.14

Variant	protein stability index
KEHVYTWLQNTHVYSWPKNKKNIL [P5Y]	1.94
KEHVPTWLQNDHVYSWPKNKKNIL [T11D]	2.52
KEHVPTWLQNIHVYSWPKNKKNIL [T11I]	2.55
KEHVPTWLQNNHVYSWPKNKKNIL [T11N]	3.08
KEHVPTWLQNRHVYSWPKNKKNIL [T11R]	2.54
KEHVPTWLQNEHVYSWPKNKKNIL [T11E]	2.83
KEHVPTWLQNHHVYSWPKNKKNIL [T11H]	2.38
KEHVPTWLQNFHVYSWPKNKKNIL [T11F]	2.53
KEHVPTWLQNKHVYSWPKNKKNIL [T11K]	2.57
KEHVPTWLQNGHVYSWPKNKKNIL [T11G]	2.64
KEHVPTWLQNPHVYSWPKNKKNIL [T11P]	2.67
KEHVPTWLQNWHVYSWPKNKKNIL [T11W]	2.3
KEHVPTWLQNLHVYSWPKNKKNIL [T11L]	2.44
KEHVPTWLQNAHVYSWPKNKKNIL [T11A]	2.67
KEHVPTWLQNCHVYSWPKNKKNIL [T11C]	2.28
KEHVPTWLQNQHVYSWPKNKKNIL [T11Q]	3.04
KEHVPTWLQNMHVYSWPKNKKNIL [T11M]	2.91
KEHVPTWLQNYHVYSWPKNKKNIL [T11Y]	2.36
KEHVPTWLQNSHVYSWPKNKKNIL [T11S]	2.88
KEHVPTWLQNVHVYSWPKNKKNIL [T11V]	2.52
